In publication PMC9279936:

What was measured:
[1] = system: influenza A virus hemagglutinin (on whole virus particles) (Influenza A virus (strain not in the material)); assay: BLI; conditions: BLI: 10 mM Tris-HCl pH 7.5, 140 mM NaCl, 10 mM KCl ([…], temperature not stated
[2] = system: influenza A virus hemagglutinin (on whole virus particles) (Influenza A virus (strain not in the material)); assay: BLI; conditions: BLI: 10 mM Tris-HCl pH 7.5, 140 mM NaCl, 10 mM KCl ([…], temperature not stated; cited from earlier work

Sequence: TTGGGGTTATTTTGGGAGGGCGGGGGTT [RHA0385 (biotinylated)]
- Kd [1]: 1100 pM
- Kd [2]: 50 pM
